Results from publication PMC12384571.

What was measured:
[1] = target: Human FcRn (neonatal Fc receptor for IgG) (human) (UniProt P55899); experiment: ITC; 15 uM FcRn in the sample cell, titrated with 100 uM mAb from the syringe (9 injections of 3 uL); 25 °C; 1 x PBS, pH 6.0; independent fit model
hGHbp ECD (Homo sapiens) = hGHbp ECD (Homo sapiens) (UniProt P10912); experiment: SPR; details: cited from earlier work
UniProt P10912, sequence (P10912 19-256): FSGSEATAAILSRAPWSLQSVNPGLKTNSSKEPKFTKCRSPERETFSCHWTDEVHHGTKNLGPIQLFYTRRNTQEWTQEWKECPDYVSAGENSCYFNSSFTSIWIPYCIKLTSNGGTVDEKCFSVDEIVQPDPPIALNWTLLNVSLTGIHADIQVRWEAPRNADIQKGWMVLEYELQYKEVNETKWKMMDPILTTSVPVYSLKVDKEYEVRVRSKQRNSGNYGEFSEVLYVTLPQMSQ

UniProt P55899, sequence (P55899 whole entry, looked up, the tested form may be a part): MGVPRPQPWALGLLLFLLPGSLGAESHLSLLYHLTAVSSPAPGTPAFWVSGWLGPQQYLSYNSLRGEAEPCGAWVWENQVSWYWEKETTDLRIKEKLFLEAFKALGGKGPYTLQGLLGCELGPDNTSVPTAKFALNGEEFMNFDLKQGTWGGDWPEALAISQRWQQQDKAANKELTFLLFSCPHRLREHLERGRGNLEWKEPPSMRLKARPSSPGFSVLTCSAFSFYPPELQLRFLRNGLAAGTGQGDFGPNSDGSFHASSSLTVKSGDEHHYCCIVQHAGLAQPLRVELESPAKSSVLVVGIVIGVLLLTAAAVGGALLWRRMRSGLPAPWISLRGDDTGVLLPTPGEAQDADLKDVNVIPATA

dH [1] [kcal/mol] | Substance | Kd (hGHbp ECD (Homo sapiens)) [nM]
-12 | YTE mutant IgG mAb (IgGA-YTE) (antibody) | 
 | hGHwt (from UniProt P01241) | 1.2
-5.5 | wildtype IgG mAb (IgGAwt) (antibody) | 
